This note sets out measurements from PMC9343077 (Research, 2022).

For this experiment, the target named is T1, SARS-CoV-2 spike RBD (Arg319-Asn532) fused to a His tag (SARS-CoV-2, UniProt P0DTC2).
T1 construct: also called SARS-CoV-2 spike RBD-His; SARS-CoV-2-RBD-His; not shown: His tag, N-terminal, kept
Briefly: radioligand binding. To be noted: both partners purified.

B1: ^68Ga-Nb1159 (nanobody Nb11-59 conjugated to NOTA and radiolabeled with ^68Ga) (VHH)
VHH: EVQLQESGGGLVQPGGSLRLSCAASGFTFSSYDMSWVRQAPGKGLEWVSAINSSGGSTYYADSVKGRFTISRDNAKNTLYLQMNSLKTEDTAVYYCAPSQTYGGSWYWDPIGDWGQGTLVTVSS
notes: also called ^68Ga-NOTA-Nb1159; NOTA-Nb1159 (before labelling)
In general, Kd refers to the free concentration of one partner at which half of the binding sites on the other are occupied at equilibrium, for simple one-to-one binding. A higher Kd goes with weaker binding. In the case of B1, binding was characterised by a dissociation constant (Kd) of 25.5 nM.
